# Laboratory results: the supplement of paper PMC10567573
# B1: RTP4 (parent)
# chain: AFGWFRCSSCQRSWASAQVQILCH
# B2: C10orf62 (parent)
# chain: GHSHHSHHGHPSHQSHSLPNRRH
# Variants of: B1
# Test: protein stability index of a GFP-peptide fusion (GPS, HEK-293T) (PSI 1-6); higher = more stable
# Details: c terminus: a fixed tail appended
# 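Also: lentivirally expressed fusions sorted by FACS into six bins by GFP to DsRed ratio, PSI derived from sequencing read proportions per bin multiplied by bin number.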
row,Variant,protein stability index
1,C23Y,2.81
2,S16G,1.75
3,Q18K,1.42

# Variants of: B2
# Test: as above
# Details: c terminus: native
row,Variant,protein stability index
1,H10T,2.53
2,H10G,2.34
3,H10Q,3.81
4,H10P,2.43
5,H10W,3.14
6,H10K,2.86
7,H10D,1.74
8,H10S,2.08
9,H10A,3.41
10,H10R,3.48
11,H10E,1.48
12,H10Y,3.67
13,H10I,2.96
14,H10M,2.98
15,H10C,3.79
16,R22A,3.28
17,S15G,3.98
18,S15T,2.91
19,S15Q,2.95
20,S15W,2.92
21,S15K,3.18
22,S15P,3.1
23,S15Y,2.6
24,S15D,2.07

row,Variant,protein stability index
1,S15A,3.68
2,S15R,3.2
3,S15N,3.44
4,S15V,3.59
5,S15F,2.19
6,S15H,2.48
7,S15M,2.74
8,S15E,3.39
9,H5W,2.3
10,H5D,3.54
11,H5C,3.11
12,H5L,2.65
13,H5E,2.3
14,H5M,2.23
15,H5P,4.04
16,H5K,1.69
17,H5T,3.1
18,H5F,3.95
19,H5I,2.64
20,H5S,2.38
21,H5G,2.33
22,H5A,2.92
23,H5Y,3.13
24,H5N,2.35

row,Variant,protein stability index
1,H7E,2.1
2,H7L,3.37
3,H7M,1.87
4,H7A,2.72
5,H7N,2.44
6,H7G,1.83
7,H7D,3.05
8,H7W,2.41
9,H7R,3.22
10,H7K,2.14
11,H7C,2.65
12,H7P,4.21
13,H7S,3.47
14,H7T,2.66
15,S6K,1.55
16,S6A,4.79
17,S6R,2.98
18,S6W,4
19,S6H,4.03
20,S6L,3.37
21,S6Y,3.47
22,S6I,2.27
23,S6M,3.95
24,S6V,2.71

row,Variant,protein stability index
1,S6Q,3.1
2,S6E,1.84
3,S6F,2.95
4,S6D,2.08
5,S6P,2.12
6,S6N,3.28
7,S6T,3.3
8,N20A,2.97
9,N20H,2.44
10,N20D,3.58
11,N20I,2.29
12,N20S,1.35
13,N20V,3.13
14,N20Y,2.58
15,N20Q,1.94
16,N20G,4.22
17,N20F,2.31
18,N20L,3.05
19,N20M,3.84
20,N20K,3.23
21,N20P,2.07
22,N20E,4.47
23,N20T,3.28
24,S12Q,1.6

row,Variant,protein stability index
1,S12L,2.34
2,S12T,2.57
3,S12E,3
4,S12A,2.22
5,S12P,3.31
6,S12D,2.98
7,S12W,3.49
8,S12I,4.18
9,S12R,4.62
10,S12G,2.75
11,S12Y,2.21
12,S12N,3.1
13,S12M,2.27
14,P19D,3.02
15,P19Q,2.38
16,P19K,2.15
17,P19R,2.09
18,P19T,4.47
19,P19G,2.35
20,P19L,2.28
21,P19C,2.95
22,P19N,2.4
23,P19E,2
24,P19H,2.4

row,Variant,protein stability index
1,P19Y,3.05
2,P19F,2.38
3,H2K,3.36
4,H2V,1.5
5,H2W,3
6,H2M,3.72
7,H2F,3.23
8,H2R,3.13
9,H2T,3.56
10,H2P,1.89
11,H2L,3.18
12,H2E,2.36
13,H2S,3.15
14,H2D,2.97
15,H2A,3.05
16,H2Y,2.31
17,H2Q,3.15
18,H2G,2.22
19,H2N,3.26
20,H4G,3.39
21,H4K,2.15
22,H4E,2.76
23,H4I,2.58
24,H4Y,2.93

row,Variant,protein stability index
1,H4P,3.51
2,H4N,4.06
3,H4D,2.31
4,H4V,2.93
5,H4A,2.45
6,H4C,2.69
7,H4F,3.61
8,H4Q,2.37
9,H16W,3.05
10,H16P,2.52
11,H16T,2.08
12,H16V,2.2
13,H16F,3.84
14,H16I,3.15
15,H16M,2.32
16,H16G,3.63
17,H16A,2.55
18,H16D,3.54
19,H16E,1.78
20,H16S,3
21,H16C,2.19
22,H13K,2.51
23,H13W,2.6
24,H13R,2.55

row,Variant,protein stability index
1,H13C,3.33
2,H13M,5.42
3,H13Q,2.12
4,H13A,3.6
5,H13D,2.86
6,H13S,2.65
7,H13T,3.08
8,H13F,3.57
9,H13L,3.34
10,H13E,2.68
11,H13P,2.47
12,H13Y,3.26
13,L18N,2.88
14,L18V,2.52
15,L18F,3.24
16,L18D,1.85
17,L18G,2.38
18,L18Y,2.08
19,L18H,4.06
20,L18K,1.51
21,L18Q,3.76
22,L18W,3.46
23,L18A,3.18
24,L18M,2.16

row,Variant,protein stability index
1,L18C,2.94
2,L18T,2.27
3,L18I,3.49
4,L18R,4.23
5,L18E,3.19
6,L18P,2.11
7,G9S,2.37
8,G9E,3.5
9,G9A,2.81
10,G9K,3.76
11,G9N,2.82
12,G9C,4.56
13,G9L,2.26
14,G9V,3.15
15,G9M,3.76
16,G9Q,2.3
17,G9P,1.91
18,G9T,1.87
19,G9W,3.1
20,G9D,2.41
21,G9H,3.58
22,G9F,3.35
23,G9I,4.14
24,R21D,2.2

row,Variant,protein stability index
1,R21Y,2.17
2,R21L,1.81
3,R21Q,2.38
4,R21H,2.67
5,R21N,2.6
6,R21C,4.2
7,R21P,2.05
8,R21M,2
9,R21V,1.39
10,R21G,1.71
11,R21K,1.94
12,R21W,2.43
13,R21S,1.67
14,R21A,1.97
15,R21T,1.81
16,R21F,2.13
17,R21I,2.36
18,R21E,2.81
19,S3V,3.19
20,S3Q,2.63
21,S3D,2.29
22,S3K,2.75
23,S3C,3.13
24,S3H,2.27

row,Variant,protein stability index
1,S3A,3.05
2,S3I,2.2
3,S3N,2.89
4,S3F,2.38
5,S3L,1.31
6,S3W,2.33
7,S3R,3.09
8,S3Y,3.14
9,P11S,2.71
10,P11K,4.06
11,P11Y,2.47
12,P11C,4.84
13,P11G,3.85
14,P11D,2.88
15,P11F,2.29
16,P11N,2.98
17,P11V,2.5
18,P11R,3.75
19,P11W,2.03
20,P11L,3.12
21,P11I,4.55
22,P11E,2.1
23,P11A,3.2
24,P11Q,3.94

row,Variant,protein stability index
1,P11M,1.92
2,P11T,2.56
3,G1A,4.7
4,G1Y,2.42
5,G1N,2.38
6,G1D,2.81
7,G1E,2.45
8,G1M,2.19
9,G1K,2.79
10,G1S,2.81
11,G1Q,4.66
12,G1L,3.98
13,G1T,2.66
14,G1H,2.43
15,G1R,3.44
16,G1F,3.19
17,G1W,3.55
18,G1I,3.33
19,G1P,3.63
20,S17P,4.04
21,S17D,2.43
22,S17V,1.69
23,S17T,4.17
24,S17F,1.8

row,Variant,protein stability index
1,S17E,2.14
2,S17Q,2.82
3,S17W,2.37
4,S17I,2.64
5,S17Y,4.98
6,S17A,2.08
7,S17R,4.84
8,S17C,2.65
9,S17M,3.01
10,S17G,3.77
11,Q14K,2.75
12,Q14S,2.26
13,Q14D,3.4
14,Q14T,3.78
15,Q14R,3.61
16,Q14N,2.92
17,Q14I,2.95
18,Q14V,2.08
19,Q14A,3.39
20,Q14F,2.56
21,Q14Y,1.85
22,Q14M,4.32
23,Q14H,3.42
24,Q14W,3.44

row,Variant,protein stability index
1,Q14E,2
2,Q14P,2.67
3,Q14G,2.82
4,H8M,2.06
5,H8D,1.96
6,H8N,4.02
7,H8P,1.38
8,H8Q,2.84
9,H8G,2.46
10,H8S,2.96
11,H8Y,3.29
12,H8F,3.5
13,H8E,2.42
14,H8C,4
15,H8K,3.13
16,H8R,2.72
17,H8I,3.3
18,H8A,5.15
19,H8T,3.37
